Test results from PMC10208894, “The SmNPR4-SmTGA5 module regulates SA-mediated phenolic acid biosynthesis in Salvia miltiorrhiza hairy roots”.

T1: SmTGA5 (Salvia miltiorrhiza, UniProt UPI0025ACD97B 1-458)
T1 sequence: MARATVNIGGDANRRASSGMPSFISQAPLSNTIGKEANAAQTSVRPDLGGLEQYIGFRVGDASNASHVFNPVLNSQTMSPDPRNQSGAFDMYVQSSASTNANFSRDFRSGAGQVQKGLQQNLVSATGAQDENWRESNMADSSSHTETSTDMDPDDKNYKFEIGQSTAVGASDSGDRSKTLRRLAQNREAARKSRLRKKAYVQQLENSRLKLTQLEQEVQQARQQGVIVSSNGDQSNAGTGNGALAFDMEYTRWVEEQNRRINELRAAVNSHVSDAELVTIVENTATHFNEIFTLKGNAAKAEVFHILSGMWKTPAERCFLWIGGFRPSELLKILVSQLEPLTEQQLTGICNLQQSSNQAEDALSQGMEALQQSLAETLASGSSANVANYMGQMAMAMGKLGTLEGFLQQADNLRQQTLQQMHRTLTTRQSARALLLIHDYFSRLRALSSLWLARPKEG

B1: Probe-pTAT1 (3x as-1) (dsDNA)
DNA 1: TTTAAAGTGACGTGTATCATTTAAAGTGACGTGTATCATTTAAAGTGACGTGTATCA
DNA 2: TGATACACGTCACTTTAAATGATACACGTCACTTTAAATGATACACGTCACTTTAAA
B2: Mut-Probe-pTAT1 (dsDNA)
DNA 1: TTTAAAGTTAAATGTATCATTTAAAGTTAAATGTATCATTTAAAGTTAAATGTATCA
DNA 2: TGATACATTTAACTTTAAATGATACATTTAACTTTAAATGATACATTTAACTTTAAA

Tests used:
SmTGA5 [1] = target: T1, SmTGA5; test: EMSA; unlabeled probe at 1:10 and 1:100 reduces the shift; Beyotime GS009 EMSA kit, 20-25 C, 20 min, acrylamide gel; buffer, salt and pH not stated; settings: protein: recombinant; tags: His (pET32a, N-terminal fusion); chain copies: 2; blunt
SmTGA5 [2] = target: T1, SmTGA5; test: EMSA; Beyotime GS009 EMSA kit, 20-25 C, 20 min, acrylamide gel; buffer, salt and pH not stated; settings: protein: recombinant; tags: His (pET32a, N-terminal fusion); chain copies: 2; blunt

| Binder | binding result (SmTGA5 [1]) | binding result (SmTGA5 [2]) |
| --- | --- | --- |
| B1 | binds |  |
| B2 |  | no binding |
